14 sequences from a protein production outcome set (Wang et al. 2014) can be followed below.

A short description of this data set: label from the status in PepcDB records.
For “ESYWRSRMIDAVTSDEDKVAPVYKLEEICDLLRSSHVSIVKEFSEFILKRLDNKSPIVKQKALRLIKYAVGKSGSEFRREMQRNSVAVRNLFHYKGHPDPLKGDALNKAVRETAHETISAIFSEENG”, the protein production result is “not failed”.
Consider “MSVLGFDIGNLNCYIGVARQGGIEVITNDYSLHATPACVSFGPKDRSMGVAARQAVTTNIKNTVINFKHLIGRKFSDPVAQRFIPFIPCKVVKLPNDDIGVQVSYLGEPHTFTPEQVLAALLTKLRTIVESQLSDVKKVSDCVLAVPSYFTDVQRRAVLSAIQYAGLNSLRIVNETTAIALAYGIYKQDLPEEDAKSRNVVFLDIGHSSTQASLVAFNRGKLQMVNTSYDLESGGIWFDALIREHFRKEFKTKYGIDAATSPRPWLRLLDECERVKKQMSANQTPIPLNIECFMEDKDVTGKMQRQEFEDLAAPIFNRIKQVLINLFADGVSIKPEEIDEIEIVGGSSRIPMIREIVKDLFGKEPKTTMNQDEAVARGAAMQCAILSPTFRVREFAIKDTQPYRIRLSWNSTGENGGENDVFSPRDEVPFSKLVSLLRSGPFNVEAHYAQPNVVPHNQVHIGSWKVNGARPGADGGNQKVKVKVRVNPDGIFTIASATMYEPRIVEEVPAEAMEVDGDAKTEAPAEPL”, for which the protein production result is on record as “failed”.
“MIQTFFDFPVYFKFFIGLFALVNPVGIIPVFISMTSYQTAAARNKTNLTANLSVAIILWISLFLGDTILQLFGISIDSFRIAGGILVVTIAMSMISGKLGEDKQNKQEKSETAVRESIGVVPLALPLMAGPGAISSTIVWGTRYHSISYLFGFFVAIALFALCCWGLFRMAPWLVRVLRQTGINVITRIMGLLLMALGIEFIVTGIKGIFPGLLN”: the protein production result is recorded as “failed”.
Then “EIAVPTLFVHGYSGTANSFKGMINRLADDGIVTESLVMTVAADGSVSTTGSYDKFSHNPTIQVIFEDNKSSMVNQTQWIQNVMKELKNNYHIEKVDAVGHSMGGVSLTSYIEKVGSDKAYPVLENLVLIGAPLNGLVVGDNGVTAYDLTDEGPKQSSDRYSEFMKNKQKIPTNLQVLNIAGDMLDGTKSDGSVSVASALSGKFIFEGQAKSYEEKIFTGKKAAHSKLHENTDVDAKVANFLWGTEKVD”, with “failed”; and “MSGRHLMYLDYLVPSWHEIESRVIAMVGYQSGGQFRTSLNEEVASLGLNLRRIEAVRTAFYHAEWQAAHMLRQRFADLDINSIIDELLRVVQQMAMIVVGSTITGGLLGATVGAFAGGAGTIPLAGAGAVMGLKVSGWILGALGLASIAEFFVEGLPRIGG”, with “failed”.
As to “MIGIVMLSKIANIDAARQGLDLKVKVLSLNKKTIKNDRGETTYFYGIIGDDTGTVSFTAWSFPAAVKSGDVVEIKNCYSSLYNGKIRIYVDSRSQVVLKPDEYLEVKRTVELVKLRDLSLTTPYVSVIGRISGIKEKNYDSDRGSKIVYQGFIEDETAKVRISSFGKPLKDGEIVRVENARVSQYNGYMGISIGENSSIDNVQAQIEVGSRPIFIAEIKSPIGGVTITGFAVSVGQGSRIFTKCSICKKILEDGKCKDHPRAPVYLDIFGYFLLSDGTGSLTCYLNKDSFLPYIKMDTEEFKSQAFSMNPNMLIKKNILGKCLSVTGDLRLRDDKITMNASSIKEADADSVKDIEKTIQEEFQLEHHHHHH”, the protein production entry is on record as “failed”.
Then “MELTTDIGGRSAAGVDRAPAGATSRTALWTGRVLSGLAIAFLAFDALGKLMRAAPVLEGSQQLGYPLDTVVGIGATLLACVVLYAIPRTAALGAILLTGYLGGAVATHVRVGNPLFSHVLFPTYVGALIWGGLVLRDRRLLAALLRGRARAAEEEA”, with “failed”; and “MTVEQNVLQQSAAQKHQQTFLNQLREITGINDAQILQQALKDSNGNLELAVAFLTAKNAKTPPQEET”, with “not failed”.
In the case of “TAEEVVTVALRCPSGNVLRRRFLKSYSSQVLFDWMTRIGYHISLYSLSTSFPRRPLAVEGGQSLEDIGITVDTVLILEEKE” it was “failed”; in that of “MKVFFNKIPLALSSLVLALFSLSNQISQYTLFSQGIWLIAVFGFFLVLGRPIIGYRQTQEDLHNPVIASAFPSFFMAAFLFAGRLPLAQADLSIAWIVVLIGLYIAYIIFFSLRFLRPLVLEQVYPSWFVVYVGPAINLVTIPDSIPNSTKALILGLTGLATLALFPLIFWRMRRLAIPQPVLPILAILAAPLALLITSSIKSGQKPDTILLVGLLIFSQLFFFFALGLFTRLVNKGFVPLFAAFSFPLVNSINAFKAATTSLGLVNPATQLVYKVEFVFVLVIMTYLLYHFLKLLYKALIQALNTKKQAGSV”, “failed”.
Then “MSKKSGLSFLWLSAVAFVIDLLTKYIVVQKFDLYESVNVLPVFNLTYVRNYGAAFSFLADHSGWQQYFFILLALAISGMLVYFLAKNNAEQKIQNSAYALIIGGALANMVDRAYNGFVVDFFDFYWDIYHYPVFNIADIAICIGAGLLVLDAFKSEKKKVQDKQVEKCGQK”, with “failed”; and “METPKGTIIFTTVGRTHYGFDVFSLNIATSVERRLTDGVSVNFNAQFVNDKSDDVVFVSERNGSARIYKTRSGISKPEQIPGAPESYFHDRPIITQNNRLYFISAHEQPDRYFKNWSALYTVELNSAKREVTRVTPPDTADFSPAVSQSGDFLAVASYGTRSWGGEFHEINTDITVFKASKPETRVVICERGGWPTWSGDSTVFFHHQADDGWWSIFRVDIPENFTEYTDFPITPIRVTPSGLHCFTPAAFRDGKRIALATRRRGVNHRHIEIYDLENTTFQPVTESLNPSFHHYNPFVSPDSEFLGYHRFRGESTQGESIVPNIESIVSPIKTLRLLRINGSFPSSSPNGDLIALNSDFDINGGIKVSKSDGSKRWTLIKDRTAFYNSWSPTERHVIYTSLGPIFSPARIAVQIARIKFDPSDLTADKEDLPCDVKILTLENTGNNAFPSCSPDGKSIVFRSGRSGHKNLYIVDAVNGESNGGGIRRLTDGPWIDTMPCWSPKGDLIGFSSNRHNPENTAVFGAYVVRPDGTGLRRIQISGPEGSEEAARERVNHVSFNKDGDWLVFAANLSGVTAEPVTMPNQFQPYGDLYVVKLDGTGLRRLTWNGYEDGTPTWHTADELDLSQLNLNGQDGDKLEGQFEEPLWISCDI”, with “failed”.
On to “MDYKVSVLIVCYNQEKYIKKALESVLSQKVNFNYEIVVCDDCSSDRTFNILQEYKSKLGSKLNLIRNYKNLGITLNYKNGFKNCKGEYIAVLEGDDYWIQKSKLKRQVSFLESNRDCSLVFNKIVLDYGDEKINNLIYPFNDIRKKFSARELVRSNFIQNFSCCMYRKSSIRKLRESIYDMVVYDWMFNMAVAQFGLIGYIPNYMTSHRILKSGLWSGKSKMENLQMISKCIDQYDSFFKYKYRKEFSQNKQEVLQALRRLVMVNENGLEHHHHHH”, for which the protein production result is reported as “not failed”.
With “MNDSAPRRVRVRAPELIGKGGWLNTGDKQYTLADLRGRIVVLDFWTFCCINCLHVLDELRELEEKHRDTVVIIGVHSPKFVHEAEHQAVVDAVERYGVEHPVLDDPELATWKQYAVRAWPTLVVIDPEGYVVAQHAGEGHAHAIAALVAELEAEHEAKGTLRRGDGPYVAPEPEPTVLRFPGKALLLPSGNFLVSDTTRHQLVELAADGESVVRRIGSGIRGFADGPADAASFSEPQGMTLLDEDVVVVADTVNHALRRLDLATGEVTTLAGTGRQWWQGSPASGPAREVDLSSPWDVAVFGGRVWIAMAGGAPAVDVRPGGGDGRGRGGHDERGAGRRTGLEHHHHHH”, the protein production result is “not failed”.
